Test results as given in patent US20250188136A1, “AV3 MUTANT POLYPEPTIDES FOR PEST CONTROL” (Vestaron Corporation, priority 2021, published 2025).
Entries after “also recorded” stand apart in the source; their conditions may differ. Ends that are not written are not given here.

Columns and labels:
[1] = Proteolytic resistance of Av3b mutants during production-strain fermentation (rpHPLC); format: physicochemical; settings: for Degradation?: mutant strain fermentation at pH 6.5, 140 hours, rpHPLC; for degradation product during fermentation (HPLC): production strain fermentation at pH 6.5, rpHPLC
Method: The mutants in the table below were evaluated for stability in fermentation beer. Fermentation conditions and HPLC analysis were performed as described above. The mutant production strains were generated using YCT306 K. lactis strain. The production of mutants was performed as described in Example 2; fermentation conditions were performed using the same fermentation process described above regarding the Av3b production strain, with pH control at pH 6.5. […] To identify the mutant with proteolytic resistance, the mutant strains were grown under the same fermentation conditions as Av3b, and samples were taken throughout the fermentation process. The samples taken at 140 hour of fermentation process were analyzed in rpHPLC.

houseflies = experiment: Housefly injection assay (knock-down); format: in vivo, Musca domestica; settings: for Activity: knock-down at 5 hours post-injection normalized to Av3b, Yes = insecticidal activity maintained; for housefly knock-down / insecticidal activity relative to Av3b: knock-down at 5 hours post-injection
Method: An exemplary housefly injection bioassay is as follows: conditioned media is serially diluted to generate full dose-response curves from the housefly injection bioassay. Before injection, adult houseflies (Musca domestica) are immobilized with CO2, and 12-18 mg houseflies are selected for injection. A microapplicator, loaded with a 1 cc syringe and 30-gauge needle, is used to inject 0.5 μL per fly, doses of serially diluted conditioned media samples into houseflies through the body wall of the dorsal thorax. The injected houseflies are placed into closed containers with moist filter paper and breathing holes on the lids, and they are examined by knock-down ratio or by mortality scoring at 24 hours post-injection. Normalized yields are calculated. Peptide yield means the peptide concentration in the conditioned media in units of mg/L. However, peptide yields are not always sufficient to accurately compare the strain production rate. […] A culture with a high cell density may produce a higher concentration of the peptide in the media, even though the peptide production rate of the strain is lower than another strain which has a higher production rate. Accordingly, the term “normalized yield” is created by dividing the peptide yield with the cell density in the corresponding culture and this allows a better comparison of the peptide production rate between strains. The cell density is represented by the light absorbance at 600 nm with a unit of “A” (Absorbance unit).
A housefly injection assay was performed to determine the activity of the new mutants. Adult houseflies were immobilized with CO2 for 10 minutes, and then transferred to a CO2 pan to keep immobilized. Flies with weight between 12-20 mg were picked for injection. The new mutants and Av3b control were diluted in water to proper doses for injection. Next, a 0.5 μL peptide solution was injected into each housefly at the dorsal thorax using a hand-microapplicator with 1 cc all-glass syringe with 30 gauge straight needle. The injected flies were then transferred to a 2 oz. transparent portion container with a wet #4 filter paper. Fly knock-down was assessed at 5-hours post-injection. The activity of a given new mutant was then normalized to the activity of the Av3b production strain (control), using the fly knock-down score at 5 hours.

[2] = Stability of purified peptide spiked into Av3b fermentation beer (rpHPLC); format: physicochemical; settings: for resistance to fermentation beer protease cleavage compared to Av3b: spiked into Av3b fermentation beer pH 6.5, room temperature
Method: To determine the stability of the new mutants, Av3bM19, Av3bM23, Av3bM24, Av3bM25, Av3bM27, and Av3bM28 were purified and incubated in Av3b fermentation beer. The mutants were purified by cation-exchange chromatography using a GE SP-Sephadex C-25 column. The column was first calibrated with 30 mM sodium citrate buffer at pH 3.0. Then, the culture supernatant containing the secreted mutant peptide was loaded into the column to let the mutant peptide bind to the resin. The column was then washed with 30 mM sodium citrate buffer, pH 3.0, followed by washing with 30 mM sodium acetate, pH 4.0. Next, the bound mutant peptide was eluted by 1 M or 2 M NaCl with 30 mM sodium acetate, pH 4.0. The elution was then concentrated and buffer-exchanged to 30 mM sodium acetate, pH 4.0 using a 1 kD cutoff spin concentrator.
After purification, each of the mutants, Av3bM19, Av3bM23, Av3bM24, Av3bM25, Av3bM27, and Av3bM28, were evaluated for stability by spiking them into Av3b strain fermentation beer at pH 6.5. As a negative control, Av3b was evaluated in a pH 4.0 buffer. As a positive control, purified Av3b was evaluated by spiking into the same Av3b fermentation beer at pH 6.5. All stability experiments were performed at room temperature. […] The amount of peptide remaining relative to the beginning was determined by normalizing the peak area at different time to the one at 0 hour for each treatment. The degradation trend is visualized by the bar graph of the relative remaining peptide amount trend.

## KSCCPCYWGGCPWGQNCYPEGCSGPD (ends and bridges not checked; cysteine pairing not given here) [Av3bM100]
[1]
  Degradation?: Yes

## KSCCPCYWGGCPWGQNCYPEGCSGPA (ends and bridges not checked; cysteine pairing not given here) [Av3bM97]
[1]
  Degradation?: Yes

## KSCCPCYWGGCPWGQNCYPEGCSGGV (ends and bridges not checked; cysteine pairing not given here) [Av3bM146]
[1]
  Degradation?: Yes

## KSCCPCYWGGCPWGQTCYPEGCSGPK (ends and bridges not checked; cysteine pairing not given here) [Av3bM22]
houseflies
  Activity: No

## HSCCPCYWGGCPWGQNCYPEGCSGPK (ends and bridges not checked; cysteine pairing not given here) [Av3bM28]
houseflies
  housefly knock-down / insecticidal activity relative to Av3b: without a concomitant reduction in housefly knock-down activity; also recorded: insecticidal activity
  Activity: Yes

## KSCCPCYWGGCPWGQNCYPEGCDGP (ends and bridges not checked; cysteine pairing not given here) [Av3bM172]
[1]
  Degradation?: Yes

## KSCCPCYWGGCPWGQNCYPEGCSGPH (ends and bridges not checked; cysteine pairing not given here) [Av3bM104]
[1]
  Degradation?: Yes

## KSCCPCYWGGCPWGQNCYPEGCSGPR (ends and bridges not checked; cysteine pairing not given here) [Av3bM98]
[1]
  Degradation?: No
  degradation product during fermentation (HPLC): did not show any degradation product; also recorded: no degradation product

## KSCCPCYWGGCPWGQNCYPEGCDGPA (ends and bridges not checked; cysteine pairing not given here) [Av3bM156]
[1]
  Degradation?: Yes

## KSCCPCYWGGCPWGQNCYPEGCSGPKVI [Av3bM168]
[1]
  Degradation?: Yes

## KSCCPCYWAGCPWGQNCYPEGCSGPK (ends and bridges not checked; cysteine pairing not given here) [Av3bM27]
houseflies
  housefly knock-down / insecticidal activity relative to Av3b: behaved like Av3b; also recorded: insecticidal activity comparable to Av3b
  Activity: Yes

## KSCCPCYWGGCPWGQDCYPDGCDGPK (Av3bM19; VARIANT (1)..(26) Recombinant variant of Anemonia viridis Av3 peptide)
houseflies
  housefly knock-down / insecticidal activity relative to Av3b: without a concomitant reduction in housefly knock-down activity; also recorded: insecticidal activity
  Activity: Yes
[2]; Av3b production fermentation beer pH 6.5, room temperature (Example 11, FIG. 37)
  half-degradation time: 666 h
[2]; fermentation beer pH 6.5, room temperature, 248 hours, HPLC peak area relative to starting amount
  peptide remaining: 95%
[2]
  resistance to fermentation beer protease cleavage compared to Av3b: greater resistance to yeast fermentation beer protease cleavage; also recorded: improved resistance to fermentation beer cleavage; also recorded: resist the degradation in Av3b fermentation beer

## KSCCPCYWGGCPWGQNCYPEGCSGRV (ends and bridges not checked; cysteine pairing not given here) [Av3bM147]
[1]
  Degradation?: Yes

## QSCCPCYWGGCPWGQNCYPEGCSGPH (ends and bridges not checked; cysteine pairing not given here) [Av3bM30]
houseflies
  Activity: No

## KSCCPCYWGGCPWGTTCYPNGCDGPK (Av3bM20; VARIANT (1)..(26) Recombinant variant of Anemonia viridis Av3 peptide)
houseflies
  Activity: No

## KSCCPCYWGGCPWGQNCYPEGCTGPG (ends and bridges not checked; cysteine pairing not given here) [Av3bM169]
[1]
  Degradation?: Yes

## KSCCPCYWPGCPWGQNCYPEGCRGPD (ends and bridges not checked; cysteine pairing not given here) [Av3bM125]
[2]; Av3b production fermentation beer pH 6.5, room temperature (Example 12, FIG. 39)
  half-degradation time: 369 h
[2]
  resistance to fermentation beer protease cleavage compared to Av3b: dramatically improved resistance to degradation

## KSCCPCYWGGCPWGQNCYPNGCSGPK (Av3bM23; VARIANT (1)..(26) Recombinant variant of Anemonia viridis Av3 peptide)
houseflies
  housefly knock-down / insecticidal activity relative to Av3b: without a concomitant reduction in housefly knock-down activity; also recorded: insecticidal activity
  Activity: Yes

## KSCCPCYWGGCPWGQNCYPEGCSGPQ (ends and bridges not checked; cysteine pairing not given here) [Av3bM102]
[1]
  Degradation?: Yes

## KSCCPCYWGGCPWGQNCYPEGCDGPG (ends and bridges not checked; cysteine pairing not given here) [Av3bM171]
[1]
  Degradation?: Yes

## KSCCPCYWGGCPWGQNCYPEGCSGPN (ends and bridges not checked; cysteine pairing not given here) [Av3bM99]
[1]
  Degradation?: Yes

## TSCCPCYWGGCPWGQNCYPEGCSGPK (ends and bridges not checked; cysteine pairing not given here) [Av3bM31]
houseflies
  Activity: No

## KSCCPCYWPGCPWGQNCYPEGCSGPK (ends and bridges not checked; cysteine pairing not given here) [Av3bM25]
houseflies
  housefly knock-down / insecticidal activity relative to Av3b: without a concomitant reduction in housefly knock-down activity; also recorded: insecticidal activity
  Activity: Yes

## KSCCPCYWGGCPWGTNCYPEGCSGPK (ends and bridges not checked; cysteine pairing not given here) [Av3bM21]
houseflies
  Activity: No

## KSCCPCYWPPCPWGQNCYPEGCSGPK (ends and bridges not checked; cysteine pairing not given here) [Av3bM26]
houseflies
  Activity: No

## KSCCPCYWGGCPWGQNCYPEGCSGPE (ends and bridges not checked; cysteine pairing not given here) [Av3bM101]
[1]
  Degradation?: Yes

## SSCCPCYWGGCPWGQNCYPEGCSGPT (ends and bridges not checked; cysteine pairing not given here) [Av3bM33]
houseflies
  Activity: No

## KSCCPCYWGGCPWGQNCYPEGCSGPKG [Av3bM148]
[1]
  Degradation?: No
  degradation product during fermentation (HPLC): did not show any degradation product; also recorded: without apparent degradation products

## KSCCPCYWGGCPWGQNCYPEGCDGPT (ends and bridges not checked; cysteine pairing not given here) [Av3bM157]
[1]
  Degradation?: Yes

## SSCCPCYWGGCPWGQNCYPEGCSGPK (ends and bridges not checked; cysteine pairing not given here) [Av3bM32]
houseflies
  Activity: No

## KSCCPCYWGGCPWGQNCYPEGCSGPT (ends and bridges not checked; cysteine pairing not given here) [Av3bM111]
[1]
  Degradation?: Yes
